In this assay the target is purified recombinant cathepsin A (CTSA) (human) (UniProt P10619).

The source of these data is article PMC12352893.

Sequence of purified recombinant cathepsin A (CTSA) (human) (P10619 29-480): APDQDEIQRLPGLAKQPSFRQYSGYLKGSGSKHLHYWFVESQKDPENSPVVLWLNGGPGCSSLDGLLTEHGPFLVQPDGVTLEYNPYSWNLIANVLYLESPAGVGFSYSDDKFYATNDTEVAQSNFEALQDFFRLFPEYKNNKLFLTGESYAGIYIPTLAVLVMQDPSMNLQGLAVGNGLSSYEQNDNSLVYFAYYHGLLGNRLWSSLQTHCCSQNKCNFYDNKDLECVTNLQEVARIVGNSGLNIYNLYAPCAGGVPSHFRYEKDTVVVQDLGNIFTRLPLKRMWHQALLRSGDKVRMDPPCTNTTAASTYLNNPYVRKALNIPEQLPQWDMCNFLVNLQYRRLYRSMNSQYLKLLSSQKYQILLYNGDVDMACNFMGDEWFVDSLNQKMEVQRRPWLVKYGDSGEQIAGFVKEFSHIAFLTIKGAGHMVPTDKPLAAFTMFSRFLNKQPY

For the substance “purified recombinant NEU1 (from UniProt Q99519 48-415) (enzyme)”, the NEU1 enzymatic activity (moles of substrate/moles of NEU1/sec) of recombinant NEU1 incubated with CTSA; fold reduction by high HS concentrations (≥0.3 mg/mL) worked out at 100 fold.
